{"source": "patent US9702869B2", "about": "“Assays, antibodies, immunogens and compositions related to 5-FU” (WELLSTAT DIAGNOSTICS, LLC, priority 2011, dated 2017)", "type_in_all_cases": "binding", "key": {"[1]": {"test": "Indirect antibody ELISA, cross-reactivity with uracil", "details": "Table 3; (IC50 for 5-FU/IC50 for testing chemical)%", "excerpt": "(§1) This indirect antibody ELISA assay 5-FU assay was constructed using either 1-3C-5-FU-BSA or 1-5C-5-FU-BSA as antibody capture reagent and a horseradish perioxidase (HRP) conjugated goat anti-mouse antibody as the antibody detector reagent. The binding of 5-FU antibody was detected with 3,3,5,5-TetraMethylBenzidine (TMB) as the HRP enzyme substrate. The 5-FU ELISA assay signal (OD450) decreased proportionally to the increasing concentration of 5-FU. The 5-FU IC50 and tegafur cross-reactivity were determined as in the previous section.\n(§2) In addition to tegafur, several 5-FU structurally related chemicals were also evaluated for their cross-reactivity to the antibodies generated with 5-FU conjugate with the 3-carbon linker and were summarized below in Table 3. […] However, antibody 36H11 was highly specific for 5-FU and was detected for about 12% or lower cross-reactivity with tegafur."}, "[2]": {"test": "Indirect antibody ELISA, cross-reactivity with DH-5-FU", "details": "Table 3; (IC50 for 5-FU/IC50 for testing chemical)%", "excerpt": "as §1, §2"}, "[3]": {"test": "Indirect antibody ELISA, cross-reactivity with tegafur", "details": "(IC50 for 5-FU/IC50 for testing chemical)%", "method": "In this experiment, antibody capture reagents were 5-FU BSA conjugates modified at the 5-FU position 1 with either 3-carbon or 5-carbon linkers. 5-FU was conjugated to BSA by mixing 1-5C-5-FU-NHS ester with BSA at a challenge ratio of 12:1 (molar ratios of 1-5C-5-FU-NHS to BSA) in a phosphate buffer containing a phosphate buffered saline containing 10.5 mM KH2PO4, 139.5 mM K2HPO4 and 150.6 mM NaCl, =pH 7.7-7.9 (typically pH 7.8) for 1 hour or more incubation at room temperature (typically 1 hour incubation at room temperature). After the incubation, unbound 1-5C-5-FU-NHS ester was removed by 3 buffer exchanges in an AmiconUltra4-30K filter (Millipore, Cat#UFC803024). […]\nas §1, with “The 5-FU ELISA assay signal (OD450) decreased proportionally to the increasing concentration of 5-FU.” left out, “section. […]” for “section.”\nIn addition to tegafur, several 5-FU structurally related chemicals were also evaluated for their cross-reactivity to the antibodies generated with 5-FU conjugate with the 3-carbon linker and were summarized below in Table 3. […]"}, "[4]": {"test": "Indirect antibody ELISA on 5-FU-BSA coated plates, competition with 5-FU", "method": "In this experiment, antibody capture reagents were 5-FU BSA conjugates modified at the 5-FU position 1 with either 3-carbon or 5-carbon linkers. 5-FU was conjugated to BSA by mixing 1-5C-5-FU-NHS ester with BSA at a challenge ratio of 12:1 (molar ratios of 1-5C-5-FU-NHS to BSA) in a phosphate buffer containing a phosphate buffered saline containing 10.5 mM KH2PO4, 139.5 mM K2HPO4 and 150.6 mM NaCl, =pH 7.7-7.9 (typically pH 7.8) for 1 hour or more incubation at room temperature (typically 1 hour incubation at room temperature). After the incubation, unbound 1-5C-5-FU-NHS ester was removed by 3 buffer exchanges in an AmiconUltra4-30K filter (Millipore, Cat#UFC803024). BSA conjugated with 5-FU (5-FU-BSA) was concentrated and stored in the same phosphate buffer (pH 7.8).\nas §1, with “section. […]” for “section.”"}, "[5]": {"test": "Hybridoma supernatant competition test in ECL bridging assay", "details": "hybridoma culture supernatant; signal decreased in the presence of low level of 5-FU", "method": "Hybridomas were screened between days 10-14 for the secretion of 5-FU antibody by the 5-FU antibody assay (Bridging-assay) described before. 25 μL of culture supernatant were transferred to an assay plate and mixed with 50 μL of 5-FU antibody assay master mix containing 100 ng/mL of each Bi-1-3C-5-FU-BSA and TAG Plus 1-3C-5-FU-BSA in 200 μg/mL of M280-SA beads. Samples were incubated for 30 minutes with shaking. Beads were recovered and resuspended in 150 μL of DILUENT and read in an M384 analyzer with 100 μL draw volume. Hybridomas identified from plates with greater than 20% of growing wells were re-cloned by limiting dilution in 96-well plate at 0.3 and 1.0 cells/well.\n5-FU antibody specificity and cross-reactivity was tested on hybridomas that were identified as positive for 5-FU binding. […]\nTypically, 25 μL of culture supernatant were mixed with 50 μL of 5-FU assay master mix containing 100 ng/mL of each Bi-1-3C-5-FU-BSA and TAG Plus 1-3C-5-FU-BSA in 200 μg/mL of M280-SA beads with or without competing chemicals. […] Beads were recovered and resuspended in 150 μL of DILUENT and read in an M384 analyzer with 100 μL draw volume.\nX_RCT=cross-reactivity (calculated 5-FU concentration/10 μg/mL)."}, "[6]": {"test": "Indirect antibody ELISA, cross-reactivity with cytosine", "details": "Table 3; (IC50 for 5-FU/IC50 for testing chemical)%", "excerpt": "as §1, §2"}, "[7]": {"test": "ECL assay with TAG Plus mAb as detector and position-3 modified 5-FU capture reagent", "details": "Bi-3-5C-5-FU-HSA pre-bound M280-SA beads", "method": "Unless otherwise specifically mentioned, a 5-FU immunoassay was set up by mixing the same volumes of sample with capture reagent first and then with detector reagent in a 96 well plate. After adding reagents, samples were mixed for 5 minutes at room temperature with shaking. After the incubation, beads were recovered by attaching a plate magnet to the assay plate for 2 minutes and resuspending in 150 μL of DILUENT. Samples were either read in an M384 or an M1MR analyzer with 100 μL draw volume under the 96 standard round plate protocol.\nThe performance of TAG Plus conjugated antibody 61C6 as an assay detector reagent was studied. Assay performance was evaluated in 5-FU Antibody Screening Buffer with a 5-fold 5-FU serial dilution curve from 150 μg/mL to 9.6 ng/mL as 5-FU calibrators (samples).\nA total of 5 capture reagents were evaluated in this experiment. Three capture reagents were 5-FU bound to M280-SA beads through biotinylated BSA including Bi-1-3C-5-FU-BSA, Bi-1-5C-5-FU-BSA and Bi-3-5C-5-FU-HSA pre-bound to M280-SA beads at the ratio of 1.0 μg capture reagent per mg beads (200 μg/mL). […]\nThe assay detector reagent used was TAG Plus 5-FU mAb 61C6 at the concentration of 2.0 μg/mL. […] The plate was read in an M384 ECL Analyzer with a draw volume of 100 μL under 96 standard plate protocol. […]"}, "[8]": {"test": "Indirect antibody ELISA, cross-reactivity with thymine", "details": "Table 3; (IC50 for 5-FU/IC50 for testing chemical)%", "excerpt": "as §1, §2"}}, "data": [{"molecule": "mAb 61C6: monoclonal anti-5-FU antibody, IgG2b κ; heavy chain SEQ ID NO:2, light chain SEQ ID NO:6; from 3-carbon linker immunogen (antibody, listed as Mus musculus, monoclonal anti-5-FU antibody, IgG2b κ; from 3-carbon linker immunogen) heavy: MDWLWNLLFLMAAAQSIQAQIQLVQSGPELKKPGETVTISCKASGYTLTNYGMNWVKQAPGKGLKWMGWINTNSGEPTYVEEFKGRFAFSLETSVSTVYLQISDLKHEDTATYFCARWGPHFNAYGWFAYWGQGTLVTVSAAKTTPPSVYPLAPGCGDTTGSSVTLGCLVKGYFPESVTVTWNSGSLSSSVHTFPALLQSGLYTMSSSVTVPSSTWPSQTVTCSVAHPASSTTVDKKLEPSGPISTINPCPPCKECHKCPAPNLEGGPSVFIFPPNIKDVLMISLTPKVTCVVVDVSEDDPDVQISWFVNNVEVHTAQTQTHREDYNSTIRVVSTLPIQHQDWMSGKEFKCKVNNKDLPSPIERTISKIKGLVRAPQVYILPPPAEQLSRKDVSLTCLVVGFNPGDISVEWTSNGHTEENYKDTAPVLDSDGSYFIYSKLNMKTSKWEKTDSFSCNVRHEGLKNYYLKKTISRSPGK light: MMSSAQFLGLLLLCFQGTRCYIQMTQTASSLSASLGDRVTISCRASQDIWNYLNWYQQKPDGTIKLLIYYKSRLHSGVPSRFSGSGSGIDFSLTISNLEQEDFATYFCQQGHTLPWTFGGGSKLEIKRADAAPTVSIFPPSSEQLTSGGASVVCFLNNFYPKDINVKWKIDGSERQNGVLNSWTDQDSKDSTYSMSSTLTLTKDEYERHNSYTCEATHKTSTSPIVKSFNRNEC", "values": [{"measurement": "Cross-reactivity Uracil", "setting": "[1]", "result": 1.4, "unit": "%"}, {"measurement": "Cross-reactivity DH-5-FU", "setting": "[2]", "result": 1.4, "unit": "%"}, {"measurement": "Cross-reactivity Tegafur", "setting": "[3]; Table 3", "result": 28, "unit": "%"}, {"measurement": "Tegafur Cross-reactivity**", "setting": "[3]; indirect ELISA", "result": 28, "unit": "%"}, {"measurement": "Cross-reactivity 5-FU", "setting": "[4]; Table 3, (IC50 for 5-FU/IC50 for testing chemical)%, reference", "result": 100, "unit": "%"}, {"measurement": "Ratio of IC50 on 5-FU Conjugates with 5-carbon Linker vs. 3-carbon Linker", "setting": "[4]; indirect ELISA, 5-FU IC50 on 5-carbon vs 3-carbon linker 5-FU conjugate", "result": 4.7}, {"measurement": "specificity to 5-FU", "setting": "[5]", "result": "better specificity to 5-FU"}, {"measurement": "Cross-reactivity Cytosine", "setting": "[6]", "result": 0.57, "unit": "%"}, {"measurement": "reactivity with position 3 modified 5-FU (3-5C-5-FU-HSA) capture reagent", "setting": "[7]", "result": "reactive"}, {"measurement": "Cross-reactivity Thymine", "setting": "[8]", "result": "Undetectble"}]}]}
